T1: human CD19 (human, UniProt P15391 20-556)
T1 sequence (looked up): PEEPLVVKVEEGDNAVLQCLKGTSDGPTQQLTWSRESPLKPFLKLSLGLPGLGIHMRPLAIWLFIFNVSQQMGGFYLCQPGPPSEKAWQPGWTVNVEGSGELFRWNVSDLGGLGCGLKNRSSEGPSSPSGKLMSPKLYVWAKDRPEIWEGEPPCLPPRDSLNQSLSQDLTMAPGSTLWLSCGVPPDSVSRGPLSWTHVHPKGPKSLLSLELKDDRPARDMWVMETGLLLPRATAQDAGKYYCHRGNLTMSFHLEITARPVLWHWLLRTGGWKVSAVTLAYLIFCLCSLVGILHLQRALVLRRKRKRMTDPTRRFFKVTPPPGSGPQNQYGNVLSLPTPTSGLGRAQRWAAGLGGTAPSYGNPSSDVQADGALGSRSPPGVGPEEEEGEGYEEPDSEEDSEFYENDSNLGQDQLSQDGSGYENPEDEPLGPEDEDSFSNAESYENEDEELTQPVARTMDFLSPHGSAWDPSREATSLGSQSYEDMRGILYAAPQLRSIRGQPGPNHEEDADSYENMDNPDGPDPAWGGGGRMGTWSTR

B1: CD8SP-hu-FMC65-1-vL-[hTCRb-D59C]-F-P2A-SP-hu-FMC65-1-vH-[hTCRa-T45C] (other)
TCR beta: DVVMTQSPSSLSASVGDRVTITCRASQDISKYLNWYQQKPGKAPKLLIYHTSRLHSGVPSRFSGSGSGTDFTLTISSLQPEDFATYYCQQGNTLPYTFGGGTKVEIKEDLKNVFPPEVAVFEPSEAEISHTQKATLVCLATGFYPDHVELSWWVNGKEVHSGVSTCPQPLKEQPALNDSRYCLSSRLRVSATFWQNPRNHFRCQVQFYGLSENDEWTQDRAKPVTQIVSAEAWGRADCGFTSESYQQGVLSATILYEILLGKATLYAVLVSALVLMAMVKRKDSRG
TCR alpha: QVQLQESGPGLVKPSQTLSLTCTVSGVSLPDYGVSWIRQPPGKGLEWIGVIWGSETTYYNSALKSRVLISVDTSKNQVSLKLSSVTAADTAVYYCARHYYYGGSYAMDYWGQGTTVTVSSIQNPDPAVYQLRDSKSSDKSVCLFTDFDSQTNVSQSKDSDVYICDKTVLDMRSMDFKSNSAVAWSNKSDFACANAFNNSIIPEDTFFPSPESSCDVKLVEKSFETDTNLNFQNLSVIGFRILLLKVAGFNLLMTLRLWSS
B2: CD8SP-hu-FMC65-1-vL-[hTCRb-E15C]-F-P2A-SP-hu-FMC65-1-vH-[hTCRa-S15C] (other)
TCR beta: DVVMTQSPSSLSASVGDRVTITCRASQDISKYLNWYQQKPGKAPKLLIYHTSRLHSGVPSRFSGSGSGTDFTLTISSLQPEDFATYYCQQGNTLPYTFGGGTKVEIKEDLKNVFPPEVAVFCPSEAEISHTQKATLVCLATGFYPDHVELSWWVNGKEVHSGVSTDPQPLKEQPALNDSRYCLSSRLRVSATFWQNPRNHFRCQVQFYGLSENDEWTQDRAKPVTQIVSAEAWGRADCGFTSESYQQGVLSATILYEILLGKATLYAVLVSALVLMAMVKRKDSRG
TCR alpha: QVQLQESGPGLVKPSQTLSLTCTVSGVSLPDYGVSWIRQPPGKGLEWIGVIWGSETTYYNSALKSRVLISVDTSKNQVSLKLSSVTAADTAVYYCARHYYYGGSYAMDYWGQGTTVTVSSIQNPDPAVYQLRDCKSSDKSVCLFTDFDSQTNVSQSKDSDVYITDKTVLDMRSMDFKSNSAVAWSNKSDFACANAFNNSIIPEDTFFPSPESSCDVKLVEKSFETDTNLNFQNLSVIGFRILLLKVAGFNLLMTLRLWSS
B3: CD8SP-hu-FMC65-1-vL-[hTCRb-S17C]-F-P2A-SP-hu-FMC65-1-vH-[hTCRa-Y10C] (other)
TCR beta: DVVMTQSPSSLSASVGDRVTITCRASQDISKYLNWYQQKPGKAPKLLIYHTSRLHSGVPSRFSGSGSGTDFTLTISSLQPEDFATYYCQQGNTLPYTFGGGTKVEIKEDLKNVFPPEVAVFEPCEAEISHTQKATLVCLATGFYPDHVELSWWVNGKEVHSGVSTDPQPLKEQPALNDSRYCLSSRLRVSATFWQNPRNHFRCQVQFYGLSENDEWTQDRAKPVTQIVSAEAWGRADCGFTSESYQQGVLSATILYEILLGKATLYAVLVSALVLMAMVKRKDSRG
TCR alpha: QVQLQESGPGLVKPSQTLSLTCTVSGVSLPDYGVSWIRQPPGKGLEWIGVIWGSETTYYNSALKSRVLISVDTSKNQVSLKLSSVTAADTAVYYCARHYYYGGSYAMDYWGQGTTVTVSSIQNPDPAVCQLRDSKSSDKSVCLFTDFDSQTNVSQSKDSDVYITDKTVLDMRSMDFKSNSAVAWSNKSDFACANAFNNSIIPEDTFFPSPESSCDVKLVEKSFETDTNLNFQNLSVIGFRILLLKVAGFNLLMTLRLWSS
B4: CD8SP-hu-FMC65-1-vL-[hTCRb-S77C]-F-P2A-SP-hu-FMC65-1-vH-[hTCRa-T45C] (other)
TCR beta: DVVMTQSPSSLSASVGDRVTITCRASQDISKYLNWYQQKPGKAPKLLIYHTSRLHSGVPSRFSGSGSGTDFTLTISSLQPEDFATYYCQQGNTLPYTFGGGTKVEIKEDLKNVFPPEVAVFEPSEAEISHTQKATLVCLATGFYPDHVELSWWVNGKEVHSGVSTDPQPLKEQPALNDSRYCLCSRLRVSATFWQNPRNHFRCQVQFYGLSENDEWTQDRAKPVTQIVSAEAWGRADCGFTSESYQQGVLSATILYEILLGKATLYAVLVSALVLMAMVKRKDSRG
TCR alpha: QVQLQESGPGLVKPSQTLSLTCTVSGVSLPDYGVSWIRQPPGKGLEWIGVIWGSETTYYNSALKSRVLISVDTSKNQVSLKLSSVTAADTAVYYCARHYYYGGSYAMDYWGQGTTVTVSSIQNPDPAVYQLRDSKSSDKSVCLFTDFDSQTNVSQSKDSDVYICDKTVLDMRSMDFKSNSAVAWSNKSDFACANAFNNSIIPEDTFFPSPESSCDVKLVEKSFETDTNLNFQNLSVIGFRILLLKVAGFNLLMTLRLWSS
B5: CD8SP-CD19-hu-mROO5-vL-[hTCRb-KACIAH]-F-P2A-SP-CD19-hu-mROO5-vH-[hTCRa-CSDVP]-F-F2A-PAC (other)
TCR beta: DIQMTQSPSSLSASVGDRVTITCKASDHINNWLAWYQQKPGQAPKLLIYGATTLETGVPSRFSGSGSGTDYTLTISSLQPEDFATYYCQQSWNTPWTFGQGTKLEIKREDLKNVFPPEVAVFEPSKAEIAHTQKATLVCLATGFYPDHVELSWWVNGKEVHSGVCTDPQPLKEQPALNDSRYCLSSRLRVSATFWQNPRNHFRCQVQFYGLSENDEWTQDRAKPVTQIVSAEAWGRADCGITSASYHQGVLSATILYEILLGKATLYAVLVSALVLMAMVKRKDSRG
TCR alpha: QVQLQQPGAELVKPGASVKMSCKASGYAFSSYWINWMKQKPGQGLEWIGQIYPGDGDTNYNGKFKGRATLTADTSSSTAYMQLSSLTSEDSAVYFCARSITTVVGCAMDYWGQGTSVTVSSIQNPDPAVYQLRDSKSSDKSVCLFTDFDSQTNVSQSKDSDVYITDKCVLDMRSMDFKSNSAVAWSNKSDFACANAFNNSIIPEDTFFPSSDVPCDVKLVEKSFETDTNLNFQNLSVIGFRILLLKVAGFNLLMTLRLWSS
B6: CD8SP-pre-TCRa-del48-F-F2A-CD8SP-CD19-hu-mRO05-1-scFv-V5-[hTCRb-S57C-opt]-F-P2A-Pac (other)
chain: TPFPSLAPPIMLLVDGKQQMVVVCLVLDVAPPGLDSPIWFSAGNGSALDAFTYGPSPATDGTWTNLAHLSLPSEELASWEPLVCHTGPGAEGHSRSTQPMHLSGEASTARTCPQEPLRGTPGGALWLGVLRLLLFKLLLFDLLLTCSCLCDPAGPLPSPATTTRLRALGSHRLHPATETGGREATSSPRPQPRDRRWGDTPPGRKPGSPV
TCR beta: DIQMTQSPSSLSASVGDRVTITCKASDHINNWLAWYQQKPGQAPKLLIYGATTLETGVPSRFSGSGSGTDYTLTISSLQPEDFATYYCQQSWNTPWTFGQGTKLEIKRGGGGSGGGGSGGGGSQVQLQQPGAELVKPGASVKMSCKASGYAFSSYWINWMKQKPGQGLEWIGQIYPGDGDTNYNGKFKGRATLTADTSSSTAYMQLSSLTSEDSAVYFCARSITTVVGCAMDYWGQGTSVTVSSGKPIPNPLLGLDSTGSGEDLKNVFPPEVAVFEPSEAEISHTQKATLVCLATGFYPDHVELSWWVNGKEVHSGVCTDPQPLKEQPALNDSRYCLSSRLRVSATFWQNPRNHFRCQVQFYGLSENDEWTQDRAKPVTQIVSAEAWGRADCGFTSESYQQGVLSATILYEILLGKATLYAVLVSALVLMAMVKRKDSRG
B7: CD8SP-V5-[hTCRb-KACIAH]-F-P2A-CD8SP-CD19-hu-mROO5-vL-Gly-Ser-Linker-CD19-hu-mROO5-vH-Myc-[hTCRa-CSDVP]-F-F2A-PAC (other)
TCR beta: GKPIPNPLLGLDSTGSGEDLKNVFPPEVAVFEPSKAEIAHTQKATLVCLATGFYPDHVELSWWVNGKEVHSGVCTDPQPLKEQPALNDSRYCLSSRLRVSATFWQNPRNHFRCQVQFYGLSENDEWTQDRAKPVTQIVSAEAWGRADCGITSASYHQGVLSATILYEILLGKATLYAVLVSALVLMAMVKRKDSRG
TCR alpha: DIQMTQSPSSLSASVGDRVTITCKASDHINNWLAWYQQKPGQAPKLLIYGATTLETGVPSRFSGSGSGTDYTLTISSLQPEDFATYYCQQSWNTPWTFGQGTKLEIKRGGGGSGGGGSGGGGSQVQLQQPGAELVKPGASVKMSCKASGYAFSSYWINWMKQKPGQGLEWIGQIYPGDGDTNYNGKFKGRATLTADTSSSTAYMQLSSLTSEDSAVYFCARSITTVVGCAMDYWGQGTSVTVSSEQKLISEEDGSGIQNPDPAVYQLRDSKSSDKSVCLFTDFDSQTNVSQSKDSDVYITDKCVLDMRSMDFKSNSAVAWSNKSDFACANAFNNSIIPEDTFFPSSDVPCDVKLVEKSFETDTNLNFQNLSVIGFRILLLKVAGFNLLMTLRLWSS
B8: CD8SP-CD19-MOR0028-vL-Myc2-[hTCRb-KACIAH]-F-P2A-SP-CD19-MOR0028-vH-Myc4-[hTCRa-CSDVP]-F-F2A-PAC (other)
TCR beta: DIVMTQSPATLSLSPGERATLSCRSSKSLQNVNGNTYLYWFQQKPGQSPQLLIYRMSNLNSGVPDRFSGSGSGTEFTLTISSLEPEDFAVYYCMQHLEYPITFGAGTKLEIKEQKLISEEDLGSGEDLKNVFPPEVAVFEPSKAEIAHTQKATLVCLATGFYPDHVELSWWVNGKEVHSGVCTDPQPLKEQPALNDSRYCLSSRLRVSATFWQNPRNHFRCQVQFYGLSENDEWTQDRAKPVTQIVSAEAWGRADCGITSASYHQGVLSATILYEILLGKATLYAVLVSALVLMAMVKRKDSRG
TCR alpha: EVQLVESGGGLVKPGGSLKLSCAASGYTFTSYVMHWVRQAPGKGLEWIGYINPYNDGTKYNEKFQGRVTISSDKSISTAYMELSSLRSEDTAMYYCARGTYYYGTRVFDYWGQGTLVTVSSEQKLISEEDLGSGIQNPDPAVYQLRDSKSSDKSVCLFTDFDSQTNVSQSKDSDVYITDKCVLDMRSMDFKSNSAVAWSNKSDFACANAFNNSIIPEDTFFPSSDVPCDVKLVEKSFETDTNLNFQNLSVIGFRILLLKVAGFNLLMTLRLWSS
notes: also called 022817-L08
B9: CD8SP-V5-[hTCRb-KACIAH]-F-P2A-CD8SP-hCD19-EUK5-13-vL-Gly-Ser-Linker-hCD19-EUK5-13-vH-Myc-[hTCRa-CSDVP]-F-F2A-PAC (other)
TCR beta: GKPIPNPLLGLDSTGSGEDLKNVFPPEVAVFEPSKAEIAHTQKATLVCLATGFYPDHVELSWWVNGKEVHSGVCTDPQPLKEQPALNDSRYCLSSRLRVSATFWQNPRNHFRCQVQFYGLSENDEWTQDRAKPVTQIVSAEAWGRADCGITSASYHQGVLSATILYEILLGKATLYAVLVSALVLMAMVKRKDSRG
TCR alpha: LPVLTQPPSVSVAPGKTARITCGGNNIGSKSVHWYQQKPGQAPVLVVYDDSDRPSGIPERFSGSNSGNTATLTISRVEAGDEADYYCQVWDSSSDYVVFGGGTKLTVLGGGGSGGGGSGGGGSEVQLVQSGAEVKKPGESLKISCKGSGYSFTSYWIGWVRQMPGKGLEWMGIIYPGDSDTRYSPSFQGQVTISADKSISTAYLQWSSLKASDTAMYYCARQVWGWQGGMYPRSNWWYNLDSWGQGTLVTVSSEQKLISEEDGSGIQNPDPAVYQLRDSKSSDKSVCLFTDFDSQTNVSQSKDSDVYITDKCVLDMRSMDFKSNSAVAWSNKSDFACANAFNNSIIPEDTFFPSSDVPCDVKLVEKSFETDTNLNFQNLSVIGFRILLLKVAGFNLLMTLRLWSS

Biological target: T1, human CD19
Assay: cell-based or functional assay

In order of rising “NFAT-GFP (%) after co-culture with RAJI cells” value:
1. B4  0.9%
2. B1  1.35%
3. B3  1.99%
4. B2  2.48%

Biological target: T1, human CD19
Assay: cell-based or functional assay
Remark: another data set of the same source

In order of rising “NFAT-GFP (%) after overnight co-culture with RAJI cells” value:
1. B9  6.67%
2. B6  6.77%
3. B7  9.55%
4. B8  31.6%
5. B5  71.8%

Source: US20260167693A1 (ANGELES THERAPEUTICS, published 2026)
